Target: T1, Flag-Zc3h10 (mouse, UniProt Q8R205 1-435)
T1 sequence (looked up): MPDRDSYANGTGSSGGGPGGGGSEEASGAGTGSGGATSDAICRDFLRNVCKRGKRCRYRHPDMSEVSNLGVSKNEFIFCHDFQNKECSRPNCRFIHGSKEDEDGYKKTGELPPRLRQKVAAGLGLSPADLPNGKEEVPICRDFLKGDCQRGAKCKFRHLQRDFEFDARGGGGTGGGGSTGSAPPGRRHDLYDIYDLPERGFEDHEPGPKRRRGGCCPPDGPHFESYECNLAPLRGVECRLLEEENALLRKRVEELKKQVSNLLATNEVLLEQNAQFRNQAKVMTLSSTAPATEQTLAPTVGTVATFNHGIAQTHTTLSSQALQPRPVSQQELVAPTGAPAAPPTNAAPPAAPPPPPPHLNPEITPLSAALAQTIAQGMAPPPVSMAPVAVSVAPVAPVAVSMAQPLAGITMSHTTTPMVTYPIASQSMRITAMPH
Assay: cell-based or functional assay

B1: HA-Dot1l (enzyme, mouse, UniProt Q6XZL8 1-1540, looked up)
chain: MGEKLELRLKSPVGAEPAVYPWPLPVYDKHHDAAHEIIETIRWVCEEIPDLKLAMENYVLIDYDTKSFESMQRLCDKYNRAIDSIHQLWKGTTQPMKLNTRPSNGLLRHILQQVYNHSVTDPEKLNNYEPFSPEVYGETSFDLVAQMIDEIKMTEDDLFVDLGSGVGQVVLQVAAATNCKHHYGVEKADIPAKYAETMDREFRKWMKWYGKKHAEYTLERGDFLSEEWRERIANTSVIFVNNFAFGPEVDHQLKERFANMKEGGRIVSSKPFAPLNFRINSRNLSDIGTIMRVVELSPLKGSVSWTGKPVSYYLHTIDRTILENYFSSLKNPKLREEQEAARRRQQRENKSNATTPTKVPESKAAATEAPADSGAEEEKSGVATVKKPSPSKARKKKLNKKGRKMAGRKRGRPKKMSAASAERKSKKSQSTLDLLHSPPPAPPSASPQDAYRAPHSPFYQLPPSTQLHSPNPLLVAPTPPALQKLLESFRIQYLQFLAYTKTPQYKANLQQLLDQEKEKNTQLLGTAQQLFGHCQAQKEEIRRLFQQKLDELGVKALTYNDLIQAQKEISAHNQQLREQSEQLEKDNSELRSQSLRLLRARCEELRLDWSTLSLENLRKEKQALRSQISEKQRHCLELQISIVELEKTQRQQELLQLKSCVPPDDALSLHLRGKGALGRELEADAGRLRLELDCAKISLPHLSSMSPELSMNGHAASYELCNAASRPSSKQNTPQYLASPLDQEVVPCTPSHSGRPRLEKLSGLALPDYTRLSPAKIVLRRHLSQDHTGASKAATSEPHPRPEHPKESSLPYQSPGLSNSMKLSPQDPPLASPATSPLTSEKGSEKGVKERAYSSHGETITSLPVSIPLSTVQPNKLPVSIPLASVVLPSRAERARSTPSPVPQPRDSSATLEKQTGASAHGAGGAGAGSRSLAVAPTGFYAGSVAISGALASSPAPLASGMESAVFDESSGPSSLFATMGSRSTPPQHPPLLSQSRNSGPASPAHQLTASPRLSVTTQGSLPDTSKGELPSDPAFSDPESEAKRRIVFSISVGASSKQSPSTRHSPLTSGTRGDCVQSHGQDSRKRSRRKRASAGTPSLSTGVSPKRRALPTVAGLFTQSSGSPLNLNSMVSNINQPLEITAISSPESSLKSSPTPYQDHDQPPVLRKERPLGLTNGAHYSPLTSDEEPGSEDEPSSARIERKIATISLESKSPPKTLENGGGLVGRKSAPSSEPINSSKWKSTFSPISDLGLAKAVDSPLQAGSALSHSPLFSFRPSLEEPAAEAKLPTHPRKSFAGSLGAAEGPSPGTNPPNGLAFSGGLAADLGLHSFNDGASLSHKGPDVTGLSASLSFPSQRGKDSTTEANPFLSRRQPEGLGGLKGEGNANKESGESLPLCGPSDKASLPHGSRASKGRDRELDFKGGHNLFISAAAVPPGGLLGGPGLVTVASSAGSATPTAQAPRPFLSTFAPGPQFTLGPMSLQANLGSVAGSSVLQSLFSTVPAAAGLVHVSSTATRLTNSHTMGSFSSGVAGGTVGGN
  Ucp1 promoter activity, luciferase reporter (−5.5 kb Ucp1-Luc) in HEK293 cells cotransfected with Zc3h10 and Dot1l, against empty vector control (Zc3h10 alone over 3-fold; Dot1l alone no activation): 11 fold
